Data: the supplement of paper PMC7125110
± gives the standard error. For some of these results: Fewer inactive variants are shown than the library holds.

B1: glmS ribozyme (parent)
chain: AUAAAAGCGCCAGAACUACAGAAAUGUAGUUGACGAGGAGGAGGUUUAUCGAAUUUUCGGCGGAUGCCUCCAAA

Columns and labels:
Conditions in all cases: with glucosamine-6-phosphate
glucosamine-6-phosphate [1] = variants of: B1; assay: kcat; higher = faster cleavage; RNA array
Method in brief: (§1)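 The measurements used barcoded ribozyme variants on sequenced MiSeq chips, transcribed in situ by E. coli RNA polymerase and tracked at 37 °C with a hybridised Cy3 probe. Glucosamine-6-phosphate, 40 μM to 10 mM in HEPES/KCl/Mg(OAc)2 buffer, was flowed in while tiles were imaged over ~14 h. Baseline-normalised signals, also normalised to non-cleaving reference variants, gave per-tile medians that were fit to one- or two-exponential decays for kobs. kcat and KM resulted from weighted Michaelis–Menten fits across concentrations.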

glucosamine-6-phosphate [2] = variants of: B1; assay: self-cleavage kobs at 160 uM GlcN6P; higher = faster cleavage; RNA array
Method in brief: as §1

glucosamine-6-phosphate [3] = variants of: B1; assay: self-cleavage kobs at 640 uM GlcN6P; higher = faster cleavage; RNA array
Method in brief: as §1

glucosamine-6-phosphate [4] = variants of: B1; assay: self-cleavage kobs at 2500 uM GlcN6P; higher = faster cleavage; RNA array
Method in brief: as §1

glucosamine-6-phosphate [5] = variants of: B1; assay: self-cleavage kobs at 10000 uM GlcN6P; higher = faster cleavage; RNA array
Method in brief: as §1

glucosamine-6-phosphate [6] = variants of: B1; assay: KM; higher = weaker cofactor use; RNA array
Method in brief: as §1

glucosamine-6-phosphate [7] = variants of: B1; assay: self-cleavage kobs at 40 uM GlcN6P; higher = faster cleavage; RNA array
Method in brief: as §1

Variant	kcat (glucosamine-6-phosphate [1]) [s⁻¹]	self-cleavage kobs at 160 uM GlcN6P (glucosamine-6-phosphate [2]) [s⁻¹]	self-cleavage kobs at 640 uM GlcN6P (glucosamine-6-phosphate [3]) [s⁻¹]	self-cleavage kobs at 2500 uM GlcN6P (glucosamine-6-phosphate [4]) [s⁻¹]	self-cleavage kobs at 10000 uM GlcN6P (glucosamine-6-phosphate [5]) [s⁻¹]	KM (glucosamine-6-phosphate [6]) [µM]	self-cleavage kobs at 40 uM GlcN6P (glucosamine-6-phosphate [7]) [s⁻¹]
C16U U69G	6.57e-05 ± 1.1e-05	5.84e-05 ± 1.4e-05	9.02e-05 ± 2.1e-05	8.96e-05 ± 1.1e-05	5.34e-05 ± 6.6e-06	–	–
C16A U47A	0.000851 ± 0.00014	9.46e-05 ± 2.7e-05	0.000544 ± 0.00013	0.000553 ± 0.00011	0.000758 ± 0.00011	1150 ± 410	–
C16G A48G	< 1e-05	–	–	–	–	–	< 1e-05
C16G A48U	0.000805 ± 0.0004	< 1e-05	–	–	4.45e-05 ± 9.8e-06	–	< 1e-05
C16U G32C A52G	4.34e-05 ± 1.5e-06	–	–	–	3.19e-05 ± 1.3e-05	3600 ± 420	–
C16A G63U	< 1e-05	< 1e-05	–	–	< 1e-05	–	< 1e-05
C16A C50U	< 1e-05	–	–	–	–	–	< 1e-05
C16U A53U G66A C67U	0.00153 ± 0.0004	–	0.000671 ± 0.00013	0.000968 ± 0.00031	0.00215 ± 0.00061	755 ± 320	8.2e-05 ± 1.8e-05
C16U G29A G66A	0.00966 ± 0.0019	–	0.00534 ± 0.001	0.00654 ± 0.0021	0.0139 ± 0.0063	597 ± 190	0.000592 ± 0.00015
C16G A53G	0.00701 ± 0.0012	0.000453 ± 7.3e-05	0.00151 ± 0.00025	0.00339 ± 0.00099	0.0061 ± 0.0011	2160 ± 510	0.000168 ± 3.2e-05
C16G U56G	0.00338 ± 0.00054	0.000387 ± 9.6e-05	0.000953 ± 0.00023	0.00213 ± 0.00038	0.00348 ± 0.00064	1220 ± 320	0.000129 ± 2.5e-05
C16A G37A	7.68e-05 ± 2.6e-06	–	–	5.79e-05 ± 1.2e-05	6.89e-05 ± 9.4e-06	999 ± 160	–
C16A A39C	0.000305 ± 1.9e-05	–	3.69e-05 ± 1.3e-05	0.000114 ± 1.5e-05	0.00021 ± 2.9e-05	4340 ± 490	–
C16A A39G	0.00326 ± 0.00026	0.000212 ± 5.3e-05	0.000731 ± 0.00012	0.00177 ± 0.00034	0.00273 ± 0.00053	2130 ± 240	6.75e-05 ± 1.4e-05
C16A A39U	0.00123 ± 0.00017	6.24e-05 ± 9.4e-06	0.000287 ± 2.3e-05	0.000654 ± 5.7e-05	0.000937 ± 9e-05	2410 ± 520	–
G29C A33C	< 1e-05	–	< 1e-05	–	–	–	–
C16G A33C	4.59e-05 ± 3.9e-06	–	–	3.96e-05 ± 1.6e-05	4.28e-05 ± 1.3e-05	–	< 1e-05
C16U C58A C67G	0.000119 ± 2.4e-06	4.51e-05 ± 1.9e-05	8.08e-05 ± 1.6e-05	0.000106 ± 2e-05	0.000118 ± 2.5e-05	283 ± 23	–
C16U U46C	0.0025 ± 0.00034	0.000295 ± 4.9e-05	0.000646 ± 0.00017	0.00192 ± 0.00029	0.00208 ± 0.00033	1320 ± 290	7.03e-05 ± 1.7e-05
C16U C68A	3.77e-05 ± 5.5e-06	–	4.99e-05 ± 1.5e-05	2.73e-05 ± 1.3e-05	3.74e-05 ± 7.6e-06	–	–
C16U C68U	0.0026 ± 0.0006	0.000263 ± 2.9e-05	0.000649 ± 5.6e-05	0.00247 ± 0.00034	0.00235 ± 0.00021	1440 ± 460	8.07e-05 ± 5.9e-06
C16U G44U	0.000229 ± 2.9e-05	–	7.8e-05 ± 1.7e-05	0.000216 ± 4.3e-05	0.000197 ± 2.3e-05	1160 ± 450	–
C16G A39C U54G	0.00043 ± 5.6e-05	–	0.000133 ± 2.1e-05	0.000227 ± 5.8e-05	0.000394 ± 6e-05	1500 ± 410	–
G26U C70G	0.000115 ± 1e-05	6.66e-05 ± 1.3e-05	9.17e-05 ± 1.7e-05	0.000117 ± 1.6e-05	9.26e-05 ± 2.8e-05	142 ± 48	–
G26U C70A	0.000113 ± 4.5e-05	7.79e-05 ± 2.3e-05	6.27e-05 ± 1.2e-05	0.0002 ± 4e-05	0.000106 ± 1.9e-05	–	–
C16U A36C	< 1e-05	–	< 1e-05	< 1e-05	–	28.4 ± 13	< 1e-05
C16G G41A	9.56e-05 ± 1.7e-05	< 1e-05	–	7.9e-05 ± 1.8e-05	7.96e-05 ± 1.2e-05	–	–
C16G G41C	2.59e-05 ± 7.1e-06	< 1e-05	–	–	–	–	< 1e-05
C16U A64C	0.000145 ± 2.5e-05	–	2.44e-05 ± 1.1e-05	9.71e-05 ± 1.7e-05	0.000113 ± 1.6e-05	2130 ± 970	–
C16U U65G C67G	0.0015 ± 8.8e-05	–	0.000493 ± 0.00013	0.000981 ± 0.00024	0.00128 ± 0.00032	1420 ± 160	3.76e-05 ± 1.7e-05
